Assay results reported in article PMC2580030 (PLoS ONE, 2008).
Ends that are not written are not given here.

Target: recombinant soluble empty (peptide free) HLA-DR1 (human)
Experiment: fluorescence polarisation
Conditions: both partners purified

{FAM}-PVSKMRMATPLLMQA [FAM-CLIP peptide (residues 87-101)]
t1/2: ~1.33 h
